In US20060110388A1 (APPLIED MOLECULAR EVOLUTION, published 2006):
Changes are numbered by the printed parent chain. Values joined by “and” are separate entries in the source; they are usually repeats but may differ in a detail not shown here. Equal entries are not always repeated. Blank lines part the entries; values can stand above or below the binder they belong to.

Columns and labels:
[1] = molecular target: T1, β Amyloid peptide 1-40 (human, UniProt P05067 672-711); assay: KinExA, Fab, equilibration 24 h
T1 construct: domain: β Amyloid peptide 1-40; Biotinylated peptide 1-40 (Biosource) on avidin Sepharose only captured free antibody in KinExA; also called Aβ 1-40; human Aβ (1-40)
Protocol: (§1) Typical 1× concentrations were 10 pM of antibody active sites (0.75 ng/mL) and an upper antigen concentration of 100 pM (0.43 ng/mL). The samples were then allowed to equilibrate for 24-72 hours at room temperature. A KinExA™ instrument (Sapidyne) and standard KD run file were then used to determine the KD of the system. Briefly, the KinExA™ flow cell was charged with the β Amyloid peptide coated beads and washed with PBSA. For the first sample, free antibody in solution was captured by the beads washed with PBSA and detected using 1:250 Goat anti-human Cy5 (Jackson Immunochemicals) in PBSA. The flow cell was then flushed, re-charged with beads and the next sample analyzed. The process was repeated until all 12 samples were analyzed.
(§2) For KinExA™ kₒₙ and koff measurements, antigen and antibody were prepared as described above. Antigen and antibody samples at 2× active concentration were prepared in PBSA with 0.2% BSA. Samples were mixed 1:1 and the timing for the experiment started. Typical 1× concentrations were 1 nM antibody active site concentration ([…]) and 2 nM antigen (8.6 ng/mL). A KinExA™ instrument (Sapidyne) and a kineticsdirect run file were used to follow the reaction. Time for each measurement was determined using the manufacturer's instructions. Free antibody remaining in the reaction was captured using β amyloid coated beads packed into the flow cell washed with PBSA and detected at each time point using 1:250 Goat anti-human Cy5 (Jackson) in PBSA. The flow cell was then flushed and recharged with beads for the next measurement, the process continued until a complete decay curve obtained. The data was analyzed using the KinExA™ Inject software.

[2] = molecular target: T1, β Amyloid peptide 1-40; assay: BIAcore; against m266
Protocol: (§3) BIAcore™ is an automated biosensor system that measures molecular interactions (Karlsson, et al. (1991) J. Immunol. Methods 145: 229-240). BIAcore™ analyses described herein were carried out at 25° C. In these experiments, antibody was immobilized at low density on a BIAcore™ CM5 or B1 chip. For the m266 antibody goat anti-mouse Fc (Jackson Immunoresearch) immobilized on CM5 in flow cell 2 was used for measuring binding constants. Goat anti-mouse was used as control antibody in flow cell 1. For the humanized antibodies, protein A or protein A/G was immobilized via amine coupling to flow cells 1 and 2 of a B1 or CM5 sensor chip.
(§4) Antibody was then captured only to flow cell 2 at desired levels (usually a 10-60 second injection of antibody) and allowed to stabilize for 5 minutes. For these experiments, a fresh aliquot of Aβ 1-40 was thawed and then diluted 1:10 in HBS-EP running buffer. The 1:10 dilution was used to make up a 200 nM Aβ solution which was serially diluted (1:2 dilutions) to a lowest concentration of 6.25 nM. Each concentration was injected over the surface for 5 minutes at a flow rate of 50 μl/min (250 μl total). The Aβ and antibody were eluted from both flow cells with a 40s injection of glycine pH 1.5. The signal is allowed to stabilize for 2 minutes before the next cycle. The data from flow cell 1 is subtracted from flow cell 2 to account for any bulk shifts due to buffer differences or non-specific binding to the sensor chip or Protein A. The various concentrations were injected randomly and each concentration was run in duplicate. Two control runs of buffer only were used to control for any dissociation of antibody from the capture surface. The data was analyzed using the Biaevalution™ software. A 1:1 model with mass transfer and a local Rmax was used as the best fit for the data.
Concentrations of human Aβ (1-40) from 200 nM to 1.6 nM in 2-fold serial dilution were used to obtain on-rate constant. The upper half of Table 6 represents determinations made with a first set of antibody preparations, while the lower half represents determinations made with a second set of antibody preparations

[3] = molecular target: T1, β Amyloid peptide 1-40; assay: KinExA, mAb; against m266
Protocol: as §1

[4] = molecular target: T1, β Amyloid peptide 1-40; assay: KinExA, mAb; against m266; remark: listed apart in the source
Protocol: as §2
(§5) Association rate constants (kₒₙ) of m266 and antibodies of the present invention with Aβ were determined by KinExA™, using methods as described above in Example 1. The results of two separate kₒₙ determinations by KinExA™, in which separate preparations of antibodies were used, are provided in Tables 7 and 8.

[5] = molecular target: T1, β Amyloid peptide 1-40; assay: KinExA, mAb, single experiment
Protocol: as §1

[6] = molecular target: T1, β Amyloid peptide 1-40; assay: KinExA, mAb, single experiment; remark: listed apart in the source
Protocol: as §2, §5

[7] = molecular target: T1, β Amyloid peptide 1-40; assay: KinExA, mAb, single experiment; remark: listed apart in the source
Protocol: as §2, §5

[8] = molecular target: T1, β Amyloid peptide 1-40; assay: KinExA, mAb, equilibration 24 h
Protocol: as §1, §2

[9] = molecular target: T1, β Amyloid peptide 1-40; assay: KinExA, mAb, average of the experiments
Protocol: as §1

[10] = molecular target: T1, β Amyloid peptide 1-40; assay: KinExA, mAb, average of the experiments; remark: listed apart in the source
Protocol: as §2, §5

[11] = molecular target: T1, β Amyloid peptide 1-40; assay: KinExA, mAb, average of the experiments; remark: listed apart in the source
Protocol: as §2, §5

[12] = molecular target: T1, β Amyloid peptide 1-40; assay: KinExA, mAb, single experiment, separate antigen preparation
Protocol: as §2
(§6) Association rate constants (kₒₙ) of m266 and antibodies of the present invention with Aβ were determined by KinExA™, using methods as described above in Example 1. […]
(§7) ^aNumbers in bold are the averages calculated from individual experiments. ^bA separate preparation of antibodies was used for these experiments. ^cA separate preparation of antigen was used for these experiments.

[13] = molecular target: T1, β Amyloid peptide 1-40; assay: KinExA, mAb, single experiment, separate antibody preparation
Protocol: as §2, §6, §7

[14] = molecular target: T1, β Amyloid peptide 1-40; assay: BIAcore, mAb captured, Aβ 1-40 injected, first set of preparations
Protocol: as §3, §4
Concentrations of human Aβ (1-40) from 200 nM to 1.6 nM in 2-fold serial dilution were used to obtain on-rate constant. […]

[15] = molecular target: T1, β Amyloid peptide 1-40; assay: KinExA, mAb, single experiment, separate antibody and antigen preparations
Protocol: as §2, §6, §7

[16] = molecular target: T1, β Amyloid peptide 1-40; assay: KinExA, Fab, equilibration 16 h
Protocol: as §1, with “The samples were then allowed to equilibrate for 24-72 hours at room temperature.” left out
as §2

[17] = molecular target: T1, β Amyloid peptide 1-40; assay: KinExA, mAb
Protocol: as §1

[18] = molecular target: T1, β Amyloid peptide 1-40; assay: KinExA, mAb, equilibration 16 h
Protocol: as §1, with “The samples were then allowed to equilibrate for 24-72 hours at room temperature.” left out
as §2

T1 sequence (P05067 672-711 limits assumed): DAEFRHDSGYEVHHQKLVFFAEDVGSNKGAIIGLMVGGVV

B1: 1A1 Fab (Fab, V domains shown)
VH: EVQLVESGGGLVKPGGSLRLSCAASGYTFSRYSMSWVRQAPGKGLEWVGQINIRGNNTYYPDTVKGRFTISRDDSKNTLYLQMNSLKTEDTAVYYCTTGDFWGQGTLVTVSS
VL: DIVMTQTPLSLSVTPGQPASISCSSSQSLIYSDGNAYLHWYLQKPGQSPQLLIYKVSNRFSGVPDRFSGSGSGTDFTLKISRVEAEDVGVYYCTQSTHSPWTFGGGTKVEIK
notes: Fab clone
Kd [1]: 1.9 pM | koff [1]: 1.6e-06 s⁻¹ | kon [1]: 830000 M⁻¹ s⁻¹

B3: 1A12 Fab (Fab, V domains shown)
VH: B1 VH with Y27F
VL: B1 VL with S24R, T94S
notes: Fab clone
Kd [16]: 10.8 pM | koff [16]: 1.72e-05 s⁻¹ | kon [16]: 1.59e+06 M⁻¹ s⁻¹

Other lines, results leading:

Fold Increase (kon) [2]: 3 fold | Fold increase in affinity [3]: 17 fold | Fold increase in kon [4]: 2 fold | Kd [5]: 3.2 pM and 5.7 pM | kon [6]: 580000 M⁻¹ s⁻¹ and 550000 M⁻¹ s⁻¹ and 390000 M⁻¹ s⁻¹ | kon [7]: 1.06e+06 M⁻¹ s⁻¹ and 954000 M⁻¹ s⁻¹ and 912000 M⁻¹ s⁻¹ and 883000 M⁻¹ s⁻¹ | Kd [8]: 1.2 pM | koff [8]: 1.1e-06 s⁻¹ | kon [8]: 880000 M⁻¹ s⁻¹ | Kd [9]: 4.5 pM | kon [10]: 510000 M⁻¹ s⁻¹ | kon [11]: 913000 M⁻¹ s⁻¹ | kon [12]: 976000 M⁻¹ s⁻¹ | kon [13]: 762000 M⁻¹ s⁻¹ | kon [14]: 390000 M⁻¹ s⁻¹ | kon [15]: 851000 M⁻¹ s⁻¹
B2: 1A1 monoclonal antibody (IgG1) (antibody, V domains shown)
VH: B1 VH
VL: B1 VL

Kd [17]: 15100 pM | Fold Increase (kon) [2]: 4 fold | Fold increase in affinity [3]: 0.005 fold | Kd [18]: 6310 pM | koff [18]: 0.00074 s⁻¹ | kon [18]: 120000 M⁻¹ s⁻¹ | kon [14]: 470000 M⁻¹ s⁻¹
B4: 1D4 monoclonal antibody (IgG1) (antibody, V domains shown)
VH: B1 VH with Y27F, I53S, R54Q, N57S, F101R
VL: B1 VL with S24R, T94S
